Results reported in patent US20060212953, “Tr2, tr4, tr2/tr4 double knockouts and uses thereof” (published 2006).

Biological target: T1, TR4 (testicular orphan nuclear receptor 4, NR2C2) (UniProt P49116 SEQ:1-596)
T1 sequence: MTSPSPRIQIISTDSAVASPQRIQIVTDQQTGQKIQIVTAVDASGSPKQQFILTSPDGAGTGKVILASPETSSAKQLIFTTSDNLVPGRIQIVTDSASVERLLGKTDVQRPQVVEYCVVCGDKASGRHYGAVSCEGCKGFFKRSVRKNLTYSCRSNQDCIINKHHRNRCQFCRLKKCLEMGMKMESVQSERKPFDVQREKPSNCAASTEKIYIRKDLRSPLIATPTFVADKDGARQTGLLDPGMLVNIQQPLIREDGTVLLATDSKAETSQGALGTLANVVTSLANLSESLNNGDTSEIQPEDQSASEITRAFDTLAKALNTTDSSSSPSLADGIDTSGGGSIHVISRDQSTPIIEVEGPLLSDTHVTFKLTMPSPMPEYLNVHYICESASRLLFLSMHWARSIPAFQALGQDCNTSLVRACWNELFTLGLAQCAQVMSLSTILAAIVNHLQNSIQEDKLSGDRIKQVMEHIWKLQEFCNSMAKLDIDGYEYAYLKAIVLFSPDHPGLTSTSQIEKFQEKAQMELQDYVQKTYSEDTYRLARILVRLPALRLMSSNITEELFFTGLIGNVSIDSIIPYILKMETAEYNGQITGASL
Experiment: EMSA; supershifted by monoclonal anti-TR4 antibody #15; 10 mM HEPES pH 7.9, 100 mM KCl, 2.5 mM MgCl2, 0.5 mM EDTA, 1 mM DTT, room temperature 15 min
Settings: tags: rabbit reticulocyte lysate (Promega); label: 32P 5' end
Description: TR4 proteins were synthesized in rabbit reticulocyte lysate (Promega), according to the manufacturer's instructions. The oligonucleotide probe (SEQ ID NO:46 nNOS-NHR, bp-198 to -211, 5′-[…]-3′) was end-labeled with [γ]³²P in a T4 polynucleotide kinase reaction (New England Biolabs). The EMSA reaction was performed with 2 μl TR4-containing lysate in an EMSA buffer (10 mM HEPES, pH 7.9, 6% (v/v) glycerol, 2% (v/v) Ficoll, 100 mM KCl, 0.5 mM EDTA, 2.5 mM MgCl₂, and 1 mM dithiothreitol). The reaction mixtures were incubated for 15 min. at room temperature, in the presence or absence of a mouse monoclonal anti-TR4 antibody (#15). The protein-DNA complexes were analyzed on a 5% native polyacrylamide gel. The results were visualized by autoradiography (Storm PhosphorImaging System, Amersham Pharmacia).

B1: nNOS-NHR probe (dsDNA)
DNA 1: CTGGTCAACCTTGACTTCCTT
DNA 2: AAGGAAGTCAAGGTTGACCAG
B1: binds.
